Columns and labels:
[1] = test system: 5XFAD mice; test: Active immunisation, 18F-Florbetaben-PET/MRI amyloid-plaque imaging in 5XFAD mice; format: in vivo, mouse; details: immunized 5XFAD mice, cortex, hippocampus and amygdala
Description: 5XFAD mice were immunized at 6 weeks of age for 12 weeks with antigen [Thioacetal bridged amyloid-beta peptide 1-14—KLH conjugate; DAC*[…]*HH[Cys]-amide (*S—CH—S bridged, cyclised via positions 3 and 12)] emulsified in complete Freund's adjuvant (CFA), followed by booster doses of protein emulsified in incomplete Freund's adjuvant (IFA). Mice were acclimated at our facility for at least 7 days before immunization. Mice were injected with antigen emulsified in CFA subcutaneously at two sites on the back, injecting 0.05 to 0.1 mL at each site (total of 0.1 to 0.2 mL per mouse).
Booster injections of antigen emulsified in IFA was administered at day 14, day 28, day 42 and 10 weeks after immunization with antigen/CFA emulsion. The booster is given as a single subcutaneous injection with 0.1 mL of IFA emulsion, at one site on the back. […]
All images were analyzed using PMOD v3.9 (PMOD Technologies, Switzerland) as described before (Bouter et al). […] PET VOI statistics (kBq/cc) were generated for all brain areas and standardized uptake values (SUVs) were calculated [SUV=tissue activity concentration average (kBq/cc)×body weight (g)/injected dose (kBq)] for semi-quantitative analysis. SUVs of 18F-FDG-PET scans were corrected for measured blood glucose levels [SUVGIc=SUV x blood glucose level (mg/dl)]. […]

[2] = test system: Tg4-42 mice; test: Quantification of CA1 neuron numbers by unbiased stereology in Tg4-42 mice; format: in vivo, mouse; details: aged Tg4-42 mice
Description: Tg4-42 mice were immunized at 6 weeks of age for 12 weeks with antigen [Thioacetal bridged Abeta peptide 1-14—KLH conjugate; DAC*[…]*HH[Cys]-amide (*S—CH—S bridged)] emulsified in complete Freund's adjuvant (CFA), followed by booster doses of protein emulsified in incomplete Freund's adjuvant (IFA). Booster injections of antigen emulsified in IFA was administered at day 14, day 28, day 42, thereafter monthly (3 times after month 4, 5 and 6), after immunization with antigen/CFA emulsion. Mice were acclimated at our facility for at least 7 days before immunization. […]
Stereological analysis was performed as previously described (G. Antonios et al., Alzheimer therapy with an antibody against N-terminal Abeta 4-X and pyroglutamate Abeta 3-X. Scientific reports 5, 17338 (2015)). The hippocampal cell layer CA1 (Bregma −1.22 to −3.52 mm) was delineated on cresyl violet-stained sections and analysed with a stereology workstation (Olympus BX51 with a motorized specimen stage for automatic sampling), StereoInvestigator 7 (MicroBrightField, Williston, USA) and a 100x oil lens (NA=1.35).
The treatment effect of active immunization was assessed in 6.5 month old Tg4-42 mice on hippocampus-dependent learning and memory by the Morris water maze test (FIG. 31A) and by counting the total number of CA1 neurons in the hippocampus (FIG. 31B). […]

[3] = test system: 5XFAD mice; test: Active immunisation, plaque load by immunohistochemistry in 5XFAD brain sections; format: in vivo; details: 5XFAD mouse cortex, FIG. 29
Description: 5XFAD mice were immunized with antigen [Thioacetal bridged amyloid-beta peptide 1-14—KLH conjugate; DAC*[…]*HH[Cys]-amide (*S—CH—S bridged, cyclised via positions 3 and 12)] as described previously.
Mice were sacrificed via CO2 anesthetization followed by cervical dislocation. Brain samples were carefully dissected and post-fixed in 4% phosphate-buffered formalin at 4° C. Human and mouse tissue samples were processed as previously described 4. In brief, 4 μm paraffin sections were deparaffinized in xylene, followed by rehydration in a series of ethanol. […] Non-specific binding sites were blocked by treatment with skim milk and fetal calf serum in PBS, prior to the addition of the primary antibodies. The following antibodies were used: polyclonal antibody 24311 against […], monoclonal antibody 1-57 against pyroglumatate Aβ3-X, (Synaptic Sytems, GOttingen, Germany; 1 mg/ml; 1:500), and TAP01_4 (1:200; 2 mg/ml). Corresponding biotinylated secondary anti-human and anti-mouse antibodies (1:200) were purchased from DAKO (Glostrup, Denmark). Staining was visualized using the ABC method, with a Vectastain kit (Vector Laboratories, Burlingame, USA) and diaminobenzidine (DAB) as chromogen. Counterstaining was carried out with hematoxylin.
Plaque load was quantified as previously described (G. Antonios et al., Alzheimer therapy with an antibody against N-terminal Abeta 4-X and pyroglutamate Abeta 3-X. Scientific reports 5, 17338 (2015)). 5-6 paraffin embedded sections, which were at least 80 μm afar from each other, were stained simultaneously with DAB as chromogen. For Thioflavin S fluorescent staining tissue sections were deparaffinized and rehydrated, washed twice in deionized water and then treated with 1% (w/v) ThioflavinS in aqueous solution and counterstained in a 1% (w/v) aqueous solution of 4′6-diamidin-2-phenylindol. The relative Aβ load was evaluated using an Olympus BX-51 microscope equipped with an Olympus DP-50 camera and the ImageJ software (NIH, USA). Representative pictures of 100× magnification were systematically captured. […]

DAC*FRHDSGYEC*HH[Cys]-amide (*S—CH—S bridged, cyclised via positions 3 and 12)
amyloid-plaque signal (fluorbetaben retention) [1]: drastically reduced | loss / number of CA1 neurons (in words) ([2]; FIG. 31B): significantly reduced loss of neurons | mean number (+SEM) of neurons in CA1 layer of hippocampus ([2]; IgG1 treated control 128687+13035): 185858+39180 | amyloid-plaque load in brain tissue (pan-Abeta, pyroglutamate Aβ3-X, Thioflavin S, N-truncated Aβ stainings) ([3]; listed as 3-12 linked Aβ1-14 cyclic peptide): reduction in amyloid-plaque load | amyloid-plaque load in brain tissue (pan-Abeta, pyroglutamate Aβ3-X, Thioflavin S, N-truncated Aβ stainings) ([3]; listed as cyclised Aβ peptides): strong reduction of plaques | amyloid-plaque load in brain tissue (pan-Abeta, pyroglutamate Aβ3-X, Thioflavin S, N-truncated Aβ stainings) ([3]; listed as cyclized Aβ peptide): significant reduction in plaque load
